These results are taken from patent publication US20250236673A1 (Ablynx, published 2025).

For assay [1], the target named is CD8. In words: kinetics, method not stated in Example 3.
For assay [2], the target named is T1, recombinant human CEACAM5 (human, UniProt P06731 35-685, limits assumed).
T1 construct: Immobilised by amine coupling on a CM5 chip
T1 sequence (looked up): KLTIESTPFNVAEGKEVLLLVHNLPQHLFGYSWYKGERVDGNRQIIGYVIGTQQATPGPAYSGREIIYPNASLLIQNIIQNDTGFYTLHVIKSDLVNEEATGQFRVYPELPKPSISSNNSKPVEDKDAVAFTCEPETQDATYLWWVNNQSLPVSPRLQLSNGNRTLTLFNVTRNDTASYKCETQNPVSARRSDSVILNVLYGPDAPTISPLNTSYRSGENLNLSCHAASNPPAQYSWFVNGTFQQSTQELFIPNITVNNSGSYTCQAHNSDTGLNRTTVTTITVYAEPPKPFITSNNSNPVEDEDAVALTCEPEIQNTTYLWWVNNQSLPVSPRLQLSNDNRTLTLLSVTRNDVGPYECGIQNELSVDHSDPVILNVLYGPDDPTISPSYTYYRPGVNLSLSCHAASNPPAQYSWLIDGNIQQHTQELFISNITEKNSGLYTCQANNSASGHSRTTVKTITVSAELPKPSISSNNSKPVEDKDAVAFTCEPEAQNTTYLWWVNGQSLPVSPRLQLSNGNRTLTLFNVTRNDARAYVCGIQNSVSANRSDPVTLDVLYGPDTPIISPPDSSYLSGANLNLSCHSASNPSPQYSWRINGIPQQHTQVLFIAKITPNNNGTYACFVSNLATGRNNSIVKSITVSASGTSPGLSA
The assay can be described thus: SPR on CEACAM5 (Example 2; method not restated, as Example 1).

The target of assay [3] is T2, human serum albumin (human, UniProt P02768 25-609).
T2 construct: Immobilised by amine coupling on a C1 chip; also called HSA
In words: SPR on HSA (Example 2; method not restated, as Example 1).

A word on the Kd: it is the concentration at which binding is half-saturated. In general, koff refers to the first-order rate constant of dissociation. For orientation: kon means a measure of how fast the partners come together.

T2 sequence (P02768 25-609 limits assumed): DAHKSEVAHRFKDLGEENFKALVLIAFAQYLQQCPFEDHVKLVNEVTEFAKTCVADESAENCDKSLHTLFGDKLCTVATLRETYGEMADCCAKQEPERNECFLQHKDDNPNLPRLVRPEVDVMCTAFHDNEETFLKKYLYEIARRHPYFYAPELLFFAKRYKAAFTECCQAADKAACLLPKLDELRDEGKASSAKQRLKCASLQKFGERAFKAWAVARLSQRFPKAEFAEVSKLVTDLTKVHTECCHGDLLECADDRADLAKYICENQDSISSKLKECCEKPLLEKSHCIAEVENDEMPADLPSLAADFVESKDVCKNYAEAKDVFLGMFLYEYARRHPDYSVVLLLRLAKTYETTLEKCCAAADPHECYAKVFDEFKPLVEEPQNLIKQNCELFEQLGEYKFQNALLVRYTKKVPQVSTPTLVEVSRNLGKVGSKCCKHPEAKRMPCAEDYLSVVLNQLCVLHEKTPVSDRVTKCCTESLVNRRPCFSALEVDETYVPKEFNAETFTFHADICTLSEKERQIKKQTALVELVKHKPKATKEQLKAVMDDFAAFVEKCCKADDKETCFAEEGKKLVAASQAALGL

B1: A044301298 (VHH)
VHH: EVQLVESGGGVVQPGGSLRLSCAASGFTFEDYAIGWFRQAPGREREEVSCIRTYDEQTYYADSVRGRFTISRDNARNTVSLQMNSLRPEDTALYYCAAGSYYACAYYSRPDPSEGHVDLDYWGQGTLVTVSS
In assay [1], B1 came in with a Kd of 0.113 nM, a koff of 0.000418 s⁻¹ and a kon of 3.69e+06 M⁻¹ s⁻¹.

B2: T039400047 (VHH)
VHH: EVQLVESGGGVVQPGGSLRLSCAASGLTFSTYTMGWFRQAPGREREFVAAIIWSGSNTYYADSVKGRFTISRDNARNTVYLQMNSLRPEDTALYYCAAQHFGPIGLTTRGYHYWGQGTLVTVSS
notes: Single lysine at 64; also called HIS6-ENLYFQS-5GS-A0315007E07(K43R, K75R)
As to B2, in assay [2], the Kd is 0.915 nM, the koff was 0.000451 s⁻¹ and the kon is 493000 M⁻¹ s⁻¹.

B3: T039400054 (VHH)
VHH: EVQLVESGGGVVQPGGSLRLSCAASGLTFSTYTMGWFRQAPGREREFVAAIIWSGSNTYYADSVRGRFTISRDNARNTVYLQMNSLRPEDTALYYCAAQHFGPIGLTTRGYHYWGQGTLVTVSS
notes: Single lysine at the C-terminus; also called HIS6-ENLYFQS-5GS-A0315007E07(K43R, K64R, K75R,)-K
As to B3, in assay [2], the Kd was 1.01 nM, the koff stood at 0.000526 s⁻¹ and the kon turned out to be 522000 M⁻¹ s⁻¹.

B4: T039400050 (VHH)
VHH: EVQLVESGGGVVQPGGSLRLSCAASGLTFSTYTMGWFRQAPGREREFVAAIIWSGSNTYYADSVRGRFTISRDNARNTVYLQMNSLRPEDTALYYCAAQHFGPIGLTTRGYHYWGQGTLVTVSS
notes: No lysine; also called HIS6-ENLYFQS-5GS-A0315007E07(K43R, K64R, K75R)
For B4, in assay [2], the Kd turned out to be 0.952 nM, the koff was found to be 0.000526 s⁻¹ and the kon is 553000 M⁻¹ s⁻¹.

B5: T039400053 (VHH)
VHH: EVQLVESGGGVVQPGGSLRLSCAASGLTFSTYTMGWFRQAPGKEREFVAAIIWSGSNTYYADSVRGRFTISRDNARNTVYLQMNSLRPEDTALYYCAAQHFGPIGLTTRGYHYWGQGTLVTVSS
notes: Single lysine at 43; 24 used; also called HIS6-ENLYFQS-5GS-A0315007E07(K64R, K75R,)
As for B5, in assay [2], the Kd is 0.943 nM, the koff amounted to 0.000516 s⁻¹ and the on-rate (kon) is 547000 M⁻¹ s⁻¹.

B6: T039400049 (VHH)
VHH: EVQLVESGGGVVQPGGSLRLSCAASGLTFSTYTMGWFRQAPGREREFVAAIIWSGSNTYYADSVRGRFTISRDNARNTVYLQMNSLRPEDTALYYCAAQHFGPIGLTTRGYHYWGKGTLVTVSS
notes: also called HIS6-ENLYFQS-5GS-A0315007E07(K43R, K64R, K75R, Q105K)
In the case of B6, in assay [2], the Kd stood at 0.914 nM, the koff was determined as 0.000536 s⁻¹ and the kon turned out to be 586000 M⁻¹ s⁻¹.

B7: T039400048 (VHH)
VHH: EVQLVESGGGVVQPGGSLRLSCAASGLTFSTYTMGWFRQAPGREKEFVAAIIWSGSNTYYADSVRGRFTISRDNARNTVYLQMNSLRPEDTALYYCAAQHFGPIGLTTRGYHYWGQGTLVTVSS
notes: Single lysine at 45; also called HIS6-ENLYFQS-5GS-A0315007E07(K43R, R45K, K64R, K75R)
Consider B7, for which, in assay [2], the dissociation constant (Kd) was 0.874 nM, the koff turned out to be 0.000504 s⁻¹ and the kon stood at 577000 M⁻¹ s⁻¹.

B8: T039400052 (VHH)
VHH: EVQLVESGGGVVQPGGSLRLSCAASGLTFSTYTMGWFRQAPGREREFVAAIIWSGSNTYYADSVRGRFTISRDKARNTVYLQMNSLRPEDTALYYCAAQHFGPIGLTTRGYHYWGQGTLVTVSS
notes: Single lysine at 73; also called HIS6-ENLYFQS-5GS-A0315007E07K43R, K64R, N73K, K75R
On to B8, for which, in assay [2], the Kd is 1.43 nM, the koff was determined as 0.000633 s⁻¹ and the kon worked out at 441000 M⁻¹ s⁻¹.

B9: T039400040 (VHH)
VHH: EVQLVESGGGVVQPGGSLRLSCAASGFTFRSFGMSWVRQAPGRGPEWVSSISGSGSDTLYADSVRGRFTISRDNSRNTLYLQMNSLRPEDTALYYCTIGGSLSRSSQGTLVTVSS
notes: No lysine; also called HIS6-ENLYFQS-5GS-HSA006A06(K43R, K64R, K75R, K83R)
In assay [3], B9 registered a Kd of 6.22 nM, an off-rate (koff) of 0.00231 s⁻¹ and a kon of 371000 M⁻¹ s⁻¹.

B10: T039400046 (VHH)
VHH: EVQLVESGGGVVQPGGSLRLSCAASGFTFRSFGMSWVRQAPGRGPEWVSSISGSGSDTLYADSVRGRFTISRDNSRNTLYLQMNSLRPEDTALYYCTIGGSLSRSSQGTLVTVSS
notes: Single lysine at the C-terminus; also called HIS6-ENLYFQS-5GS-HSA006A06(K43R, K64R, K75R, K83R)-K
In assay [3], B10 registered a Kd of 5.95 nM, a koff of 0.00224 s⁻¹ and a kon of 377000 M⁻¹ s⁻¹.

B11: T039400042 (VHH)
VHH: EVQLVESGGGVVQPGGSLRLSCAASGFTFRSFGMSWVRQAPGRGPEWVSSISGSGSDTLYADSVRGRFTISRDKSRNTLYLQMNSLRPEDTALYYCTIGGSLSRSSQGTLVTVSS
notes: Single lysine at 73; also called HIS6-ENLYFQS-5GS-HSA006A06(K43R, K64R, N73K, K75R, K83R)
With B11, in assay [3], the Kd came out at 89.6 nM, the koff is 0.0178 s⁻¹ and the kon came to 198000 M⁻¹ s⁻¹.

B12: T039400043 (VHH)
VHH: EVQLVESGGGVVQPGGSLRLSCAASGFTFRSFGMSWVRQAPGKGPEWVSSISGSGSDTLYADSVRGRFTISRDNSRNTLYLQMNSLRPEDTALYYCTIGGSLSRSSQGTLVTVSS
notes: Single lysine at 43; also called HIS6-ENLYFQS-5GS-HSA006A06(K64R, K75R, K83R)
In assay [3], B12 displayed a Kd of 6.42 nM, an off-rate (koff) of 0.00226 s⁻¹ and a kon of 353000 M⁻¹ s⁻¹.
